In US20180339041A1 (Kyowa Kirin, published 2018):

Columns and labels:
[1] = target: T1, C-terminally FLAG-tagged human Gas6 recombinant protein (hGas6-F) (human, UniProt Q14393 31-678, gamma-carboxylated glutamic acid residues in the Gla domain (producer cells co-express rat VKOR and human GGCX); positions not given); experiment: cell-based or functional assay
T1 sequence: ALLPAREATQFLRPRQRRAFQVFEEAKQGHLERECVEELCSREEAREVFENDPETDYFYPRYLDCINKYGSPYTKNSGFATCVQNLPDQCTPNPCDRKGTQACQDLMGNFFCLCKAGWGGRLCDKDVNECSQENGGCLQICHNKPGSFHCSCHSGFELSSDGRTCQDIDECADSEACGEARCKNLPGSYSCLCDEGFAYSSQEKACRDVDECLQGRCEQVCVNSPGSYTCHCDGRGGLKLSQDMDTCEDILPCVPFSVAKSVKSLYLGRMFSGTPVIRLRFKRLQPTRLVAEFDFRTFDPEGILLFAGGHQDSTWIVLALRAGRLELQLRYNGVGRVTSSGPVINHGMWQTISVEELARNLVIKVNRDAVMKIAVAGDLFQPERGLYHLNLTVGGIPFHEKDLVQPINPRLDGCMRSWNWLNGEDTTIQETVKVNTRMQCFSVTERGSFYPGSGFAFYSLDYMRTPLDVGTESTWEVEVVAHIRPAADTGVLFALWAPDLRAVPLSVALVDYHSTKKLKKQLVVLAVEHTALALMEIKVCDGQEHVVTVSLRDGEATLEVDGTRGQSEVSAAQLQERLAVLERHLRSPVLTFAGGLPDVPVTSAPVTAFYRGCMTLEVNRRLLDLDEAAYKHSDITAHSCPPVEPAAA

[2] = target: T2, C-terminally FLAG-tagged mouse Gas6 recombinant protein (mGas6-F) (mouse, UniProt Q61592 28-674, limits assumed, gamma-carboxylated glutamic acid residues in the Gla domain (producer cells co-express rat VKOR and human GGCX); positions not given); experiment: ELISA: mGas6-F (1 µg/mL) captured on coated anti-FLAG M2 antibody; biotinylated test antibody; streptavidin-HRP/TMB; absorbance 450-570 nm, N=2 (Example 6) [D]
T2 construct: also called mouse Gas6-F
T2 sequence (looked up): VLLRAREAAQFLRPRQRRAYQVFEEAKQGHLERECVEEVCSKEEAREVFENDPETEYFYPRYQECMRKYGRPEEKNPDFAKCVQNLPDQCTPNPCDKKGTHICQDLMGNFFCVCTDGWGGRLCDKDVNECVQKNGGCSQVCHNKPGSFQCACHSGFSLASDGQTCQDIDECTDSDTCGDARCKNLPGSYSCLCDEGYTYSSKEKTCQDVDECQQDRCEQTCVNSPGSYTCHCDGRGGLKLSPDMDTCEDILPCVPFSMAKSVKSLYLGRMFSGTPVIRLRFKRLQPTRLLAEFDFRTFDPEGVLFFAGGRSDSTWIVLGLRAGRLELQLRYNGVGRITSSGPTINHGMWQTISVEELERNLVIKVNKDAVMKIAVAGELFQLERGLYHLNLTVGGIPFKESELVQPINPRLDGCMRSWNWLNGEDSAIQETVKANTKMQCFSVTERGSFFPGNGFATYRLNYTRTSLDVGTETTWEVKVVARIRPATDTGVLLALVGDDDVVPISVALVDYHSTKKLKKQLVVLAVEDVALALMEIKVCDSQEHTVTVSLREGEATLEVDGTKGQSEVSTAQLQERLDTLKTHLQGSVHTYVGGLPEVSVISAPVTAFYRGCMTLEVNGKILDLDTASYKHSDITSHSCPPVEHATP
Description: First, 2 μg/mL anti-FLAG antibody [Monoclonal ANTI-FLAG M2 antibody produced in mouse (manufactured by Sigma-Aldrich Co. LLC) diluted with PBS (manufactured by Nacalai Tesque, Inc.)] was dispensed at 50 μL/well to a 96-well plate for ELISA (manufactured by Nalge Nunc International), and the plate was left standing overnight at 4° C. for adsorption. After removal of the immobilization solution, 1% BSA-PBS (manufactured by Nacalai Tesque, Inc.) was added thereto at 300 μL/well, and the plate was left standing at room temperature for 1 hour for blocking and washed five times with Tween 20-PBS (manufactured by Wako Pure Chemical Industries Ltd.).
Each antibody solution was dispensed thereto at 50 μL/well, and the plate was left standing at room temperature for 1 hour. This plate was washed five times with Tween 20-PBS. Then, Streptavidin HRP Conjugate (manufactured by R&D Systems, Inc.) diluted 200-fold with 1% BSA-PBS was dispensed thereto at 50 μL/well, and the plate was left standing at room temperature for 1 hour. This plate was washed five times with Tween 20-PBS, and TMB (manufactured by Sigma-Aldrich Co. LLC) was added thereto at 50 μL/well and reacted. […] The absorbance at a sample wavelength of 450 nm and a reference wavelength of 570 nm (450 nm-570 nm) was measured using a plate reader.

Binder | antibody:Gas6 molar concentration ratio at complete inhibition of reporter activation [1] | EC50 (read off the curve) [2] [ng/mL]
anti-human Gas6 mouse monoclonal antibody KM5320 (KM5320-mKG1 antibody) (antibody, V domains shown, Hybridoma-derived mouse IgG1, kappa; also called KM5320 antibody) VH: QIQLVQSGPELKKPGETVKISCKASGYTFTNYGMNWVKQAPGKGLKWMGWINTETGEPTYSDDFKGRFAFSLETSATTAYLQINNLRNEDMATYFCAREDGYYGTLDYWGQGTSVTVSS VL: SIVMTQTPKFLLVSAGDRVTITCKASQSVSNDVAWYQQKPGQSPKVLIYYASNRYTGVPDRFTGSGYGTDFTFTISTVQAEDLAVYFCQQDYSSPWTFGGGTKLEIK | 2 antibody:Gas6 molar ratio | ~3
anti-human Gas6 mouse monoclonal antibody KM5321 (KM5321-mKG1 antibody) (antibody, V domains shown, Hybridoma-derived mouse IgG1, kappa; also called KM5321 antibody) VH: QIQLVQSGPELKKPGETVKISCRASGYTFTNYGMNWVKQAPGKGLKWMGWINTNTGEPTYTEEFKGRFAFSLETSATTAYLQINDLKNEDTATYFCARDEGWFVYWGQGTLITVSA VL: ETTVTQSPASLSVATGEKVTIRCITSTDIDDDMNWYQQKPGEPPKLLISEGNTLRPGVPSRFSSSGYGTDFVFTIENTLSEDVADYYCLQTDSVPLTFGAGTKLELK | 2 antibody:Gas6 molar ratio | ~4
